Source: US20220202901A1, “PEPTIDES IN COMBINATION WITH IMMUNE CHECKPOINT INHIBITORS FOR USE IN TREATMENT OF CANCER” (WNTRESEARCH AB, priority 2019, published 2022)

What was measured:
HCC1954 cells = experiment: Functional immune response assay: PBMC cytotoxicity against HCC1954 cells; type: cell-based
Protocol: (§1) Purpose: Examining the cytotoxic effect of Foxy-5 and an anti-PD-L1 antibody alone or in combination in a functional immune response assay with different breast cancer cell lines.
(§2) Peripheral blood mononuclear cells (PBMCs) were isolated from whole blood using Ficoll Paque based density centrifugation.
(§3) SKBR3 (low in PD L1, denoted PD L1+) or HCC1954 (high in PD L1, denoted PD L1+++) cells were stained with 0.1 mM CFSE.
(§4) Effector cells (EC), i.e. PMMCs and target cells (TC), i.e. SKBR3 or HCC1954 cells, respectively, were brought to a concentration of 2×10^5 cells/ml.
(§5) Cells were treated with and without Foxy5 (100 μM), the cells were also treated with and without pembrolizumab […].
(§6) Cells were plated at EC:TC ratios of 1:1 (first bar), 5:1 (second bar) and 10:1 (third bar) along with basal cell death controls and total cell death controls. Once plated, cells were spun down and incubated for 12 hours. After 12 hours cells were re suspended with 5 μg/ml 7AAD. Cells were then analysed on the Guava flow cytometer.
(§7) Based on staining patterns live/dead cell and immune/cancer cell differentiation can be determined and the direct cytotoxicity in terms of the cell death percentage was calculated.
Direct cytotoxicity elicited by PBMCs against the HCC1954 cell line in the presence of FOXY-5 and/or pembrolizumab relative to vehicle control. […]

SKBR3 cells = experiment: Functional immune response assay: PBMC cytotoxicity against SKBR3 cells; type: cell-based; settings: SKBR3, relative to vehicle control
Protocol: as §1, §2, §3, §4, §5, §6, §7
Direct cytotoxicity elicited by PBMCs against the SKBR3 cell line in the presence of FOXY-5 and/or pembrolizumab relative to vehicle control. […]

## Pembrolizumab
HCC1954 cells; HCC1954 (PD L1 high), relative to vehicle control, EC:TC 5:1 and 10:1 ratios
  direct PBMC cytotoxicity: increased
HCC1954 cells; HCC1954, pembrolizumab added to Foxy-5 vs. single agent, ratios 1:1 and 10:1
  direct cytotoxicity: increased
SKBR3 cells; EC:TC 10:1 and 5:1 ratios
  trastuzumab mediated ADCC: decreased
SKBR3 cells; EC:TC 10:1 ratio
  direct PBMC cytotoxicity: increased
